The values below come from the nanobody polyreactivity screen of Harvey et al. (2022).

The nature of this series: yeast display, Sf9 membrane polyspecificity reagent, FACS + sequencing; frameworks hold sequencing errors. In short, it runs like this:
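Synthetic nanobody libraries on Saccharomyces cerevisiae BJ5465 were galactose-induced for 36–48 hours, stained 1 hour at 4 °C with 10% biotinylated, detergent-solubilized Sf9 membrane reagent and enriched on streptavidin microbeads. FACS then separated cells into low and high (top ~1%) gates by anti-HA (expression) and streptavidin (reagent binding) fluorescence. Genes were colony-PCR amplified, MiSeq 2 × 250 sequenced and CDR-length filtered. A clone's polyreactivity label is that of its gate of origin.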
For “QVQLVESGGGLVQAGGSLRLSCAASGSTLYWYAMGWYRQAPGKERELVARITVSGGSTSYADSVKGRFTISRYNAKNTVYLQMNSLKPEDTAVYYCAARRYWTGYYYWGQGTQVTVSS”, the “polyreactivity (PSR sort gate)” value is “high polyreactivity”.
Turning to “QVQLVESGGGLVQAGGSLRLSCAASGSTLYYNAMGWYRQAPGKERELVAAISWSGGSTYYADSVKGRFTISRDNAKNTVYLQMNSLKPEDTAVYYCAADQSTVLDVGSWGQGTQVTVSS”, the “polyreactivity (PSR sort gate)” value is given as “low polyreactivity”.
The same measure for “QVQLVESGGGLVQAGGSLRLSCAASGSTLYYNAMGWYRQAPGKESELVAAISWSGGSTYYADSVKGRFTISRDNAKNTVYLQMNSLKPEDTAVYYCAADQSTVLDVGSWGQGTQVTVSS”: “low polyreactivity”.
For the sequence “QVQLVESGGGLVQAGGSLRLSCAASGSTRGYAMGWYRQAPGKEREMVAAIRSSGSTNYADSVKGRFTISRDNAKNTVYLQMNSLKPEDTAVYFCATDGHYLYSWYKYDYWGQGTQVTVSS”, the “polyreactivity (PSR sort gate)” value is “low polyreactivity”.
Turning to “QVQLVESGGGLVQAGGSLRLSCAASGSTRYYAMGWYRHAPGKERELVASITTIGGSTSYADSVKGRFTISRDNAKNTVYLQMNSLKPEDTAVYYCATRSLVYSARAAGLIQFDHWGQGTQVNVSS”, the “polyreactivity (PSR sort gate)” value was “low polyreactivity”.
Regarding “QVQLVESGGGLVQAGGSLRLSCAASGSTSDINAMGWYRQAPGKERELVAVITFSGGSTNYADSVKGRFTISRDNAKNTVYLQMHSLKPEDTAVYYCNADTLTTTRRFNPYDYWGQGTQVTVSS”, the “polyreactivity (PSR sort gate)” value is “low polyreactivity”.
Regarding “QVQLVESGGGLVQAGGSLRLSCAASGSTSDINAMGWYRQARGKEWQLVAVITDSSNTDYADSVKGRFTISRDNAKNTVYLEMNSLKPEETAVYYCAADRDEPDPYDYWGPGTQVTVSS”, the “polyreactivity (PSR sort gate)” value was “low polyreactivity”.
For “QVQLVESGGGLVQAGGSLRLSCAASGSTSGPYAMGWYRTAPGKERELVATISWIGDRTYYADSVKGRFTISRDNAKNTIYLQMNSLKPEDTAVYYCNDDYRGYANLEGDYWGQGTQVTVSS”, the “polyreactivity (PSR sort gate)” value was “low polyreactivity”.
Turning to “QVQLVESGGGLVQAGGSLRLSCAASGSTSIEYGMGWYRQAPGKERELVATISIGSSTNYADSVKGRFTISRDNAKNTVYLQMNSLKPEDTAVYYCAADAYLDYYTGYYYQEYDSWGQGTQVTVSS”, the “polyreactivity (PSR sort gate)” value is given as “low polyreactivity”.
The same measure for “QVQLVESGGGLVQAGGSLRLSCAASGSTSILYAMGWYRQAPGKERELVAAISRSGGSTYYADSVKGRFTISRDNAKNTVYLQMNSLKPEDTAVYYCAAQWVYQYGFNYWGQGTQVTVSS”: “high polyreactivity”; for “QVQLVESGGGLVQAGGSLRLSCAASGSTSKNYAMGWYRQAPGKERELVAAITRGTSTNYADSVKGRFTISRDNAKNTVYLQMNSLKPEDTAVYYCNVERHRVWDYQWREEDDYWGQGTQVTVSS”: “low polyreactivity”.
As to “QVQLVESGGGLVQAGGSLRLSCAASGSTSPAYAMGWYRQAPGKERELVAVITGSGASTYYADSVKGRFTISRDNAKNTVYLQMNSLKPEDTAVYYCAADVGFGVVFYDYWGQGTQVTVSS”, the “polyreactivity (PSR sort gate)” value was “low polyreactivity”.
With “QVQLVESGGGLVQAGGSLRLSCAASGSTSQINAMGWYRQAPGKERELVAAITWSTGTTYYADSVKGRFTISRDNAKNTVYLQMTSLKPEDTAVYYCAAERAILSSDKQSLWRFDYWGQGTQVTVSS”, the “polyreactivity (PSR sort gate)” value is “low polyreactivity”.
“QVQLVESGGGLVQAGGSLRLSCAASGSTSQLYAMGRYRQAPGKERELVAAITVSGDSTYYADSVKGRFTISRDNAKNTVYLQMNSLKPEDTAVYYCAADVMVQTVPGGYDDWGQGTQVTVSS”: the “polyreactivity (PSR sort gate)” value is reported as “low polyreactivity”.
“QVQLVESGGGLVQAGGSLRLSCAASGSTSQRYSMGWYRQAPAKEREVVAGITTSGGRTYYADSVKGRFTISRDNAKNTVYLQMNSLKPEDTAVYYCAARTQIWKYRGYYSWGQGTQVTVSS”: the “polyreactivity (PSR sort gate)” value is listed as “high polyreactivity”.
Take “QVQLVESGGGLVQAGGSLRLSCAASGSTSRINAMGWYRQAPGKERELVAGIRANGGRTYYADSVKGRFTISRDNAKNTVYLQMNSLKPEDTAVYYCNKRNWPAEDSWGQGTQVTVSS”: the “polyreactivity (PSR sort gate)” value is recorded as “high polyreactivity”.
With “QVQLVESGGGLVQAGGSLRLSCAASGSTSRTYAMGWYRQAPGKERELVAAINSGGTTYYADSVKGRFTISRDNAKNTVYLQMNSLKPEDTAVYYCARRDFWWSRRIFGYWGQGTQVTVSS”, the “polyreactivity (PSR sort gate)” value is listed as “high polyreactivity”.
The value for “QVQLVESGGGLVQAGGSLRLSCAASGSTSRYALGWYIQAPGNERELVAAITRSGGTTYYADSVKGRFTISRDNAKNTVYLQMNSLIPEDTAVYYCATSDRQVKYDYWGQGTQVTVSS” was “low polyreactivity”; that for “QVQLVESGGGLVQAGGSLRLSCAASGSTSRYNVMGWYRQAPGKERELVAAISSRGVSTYYADSVKGRFTISRDNAKKTVYLQMNSLKPEDTAVYYCAARYGGPSHYGYWGQGTQVTVSS” was “high polyreactivity”; that for “QVQLVESGGGLVQAGGSLRLSCAASGSTSSPNAMGWNTQAPGKEREFVAAISRSGGSTYYADSVKGRFTISRDNAKNTVYLQMNSLKPEDSAVYYCAATVTVFYTRYYYWGQGTHVTVSS” was “high polyreactivity”.
Take “QVQLVESGGGLVQAGGSLRLSCAASGSTSSSKAMGWYREAPGKERELVATITNGSGTSYADSVKGRFTISRDNAKNTVYLQMNSLKPEDTAVYYCYVSSLNSYTSGTTYWGLDYWGQGTQVTVSS”: the “polyreactivity (PSR sort gate)” value is “low polyreactivity”.
As for “QVQLVESGGGLVQAGGSLRLSCAASGSTSSVYDMGWYRQEPGKERELVAGIDYSAGSTYYADSVKGRFTISRDNAKNTVYLQMNSLKPEDTAVYYCDADAAYYSGYDYWGQGTQVTVSS”, the “polyreactivity (PSR sort gate)” value was “low polyreactivity”.
The same measure for “QVQLVESGGGLVQAGGSLRLSCAASGSTSTGNAMGWYRKAPGKERELVAAITSGGNTYYADSVKGRFTISRDNAKNTVYLQMNSLKPEDTAVYYCAAASPGPWRYDYWGQGTQVTVSS”: “high polyreactivity”.
Turning to “QVQLVESGGGLVQAGGSLRLSCAASGSTSVGNAMGWYRQAPGKERELVAAMSRIGGTTYYADSVKGRFTISRDNAKNTVYLQMNSLKPEDTAVYYCNVLKRYWSGRVDYWGQGTQVTVSS”, the “polyreactivity (PSR sort gate)” value is “high polyreactivity”.
“QVQLVESGGGLVQAGGSLRLSCAASGSTSVKYAMGWYRQAPGKERELVAAIRKRGDSTYYADSVKGRFTISRDNAKNTVYLQMNSLKPEDTAVYYCAAQYLRGRGYWGQGTQVTVSS”: the “polyreactivity (PSR sort gate)” value is reported as “low polyreactivity”.
As for “QVQLVESGGGLVQAGGSLRLSCAASGSTSVKYAMGWYRQAPGKERELVAAIRKRGDSTYYADSVKGRFTISRDNAKYSVYLQMNSLKAEDTAVYYCAAQYLRGRGYWGQGTQVTVSS”, the “polyreactivity (PSR sort gate)” value was “low polyreactivity”.
With “QVQLVESGGGLVQAGGSLRLSCAASGSTSVPYTMGWYRQAPGKERELVAAISSSGGTTNYAVSVKGRFTISRDNAKNTVSLQMNSLKPEDTAVYYCAAEYYQWVAYSWNEMYYWGQGTQVTVSS”, the “polyreactivity (PSR sort gate)” value was “low polyreactivity”.
With “QVQLVESGGGLVQAGGSLRLSCAASGSTSVQYAMGWYRQAPGKERELVAAIDRSGGSTSYADSVKGRFTISRDNAKNTVYLQMNTLKPEDTAVYYCNADPVRSTYSYDYWGQGTQVTVSS”, the “polyreactivity (PSR sort gate)” value is “low polyreactivity”.
Take “QVQLVESGGGLVQAGGSLRLSCAASGSTSVTNAMGWYRQAPGKEREFFATINYSGTSTYYADSVKGRFTISRDNAKNTVYLQMNSLNPEDTAVYYCYAHDFGFYRFSLPGYDYWGQGTQVTVSS”: the “polyreactivity (PSR sort gate)” value was “low polyreactivity”.
“QVQLVESGGGLVQAGGSLRLSCAASGSTSYFNVMGWYRQAPGKERELVAAISWSGGSTYADSVKGRFTISRDNAKNTVYLQMNSLKPEDTAVYYCNKDYGYVQLRFYGPGYYWGQGTQVTVSS”: the “polyreactivity (PSR sort gate)” value is listed as “low polyreactivity”.
